Assay results reported in the RNAGym collection of RNA variant scans (doi:10.1073/pnas.2313332121).
Variants at the floor of the assay were thinned out.

B1: TPR 5TU (parent)
chain: GGAUCUUCUCGAUCUAACAAAAAAGACAAAUCUGCCACAAAGCUUGAGAGCAUCUUCGGAUGCAGAGGCGGCAGCCUUCGGUGGCGCGAUAGCGCCAACGUUCUCAACUAUGACACGCAAAACGCGUGCUCCGUUGAAUGGAGUUUAUCAUG

Variants of: B1
Experiment: polymerase ribozyme fitness, log enrichment relative to wild type (log ratio); higher = more active; in vitro selection for triplet polymerase activity
Summary of the method: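 Input and output libraries were sequenced on Illumina after a single in vitro selection round, run in triplicate on PCR-built, transcribed mutant libraries of each subunit of a heterodimeric triplet polymerase ribozyme. Selection annealed libraries to a biotinylated primer, the partner subunit and triplets, incubated them frozen at −7 °C, then gel-excised extended constructs for streptavidin-bead capture and RT-PCR. Genotypes with ≥10 input reads and ≥1 read per output were kept. Fitness is the logarithm, taken in base 2, of genotype enrichment divided by wild-type enrichment, using inverse-variance-weighted replicate averages.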

Point of comparison: G94C G143A, “polymerase ribozyme fitness (log ratio)” value -1.86. Against it:
- C96A G126A — within 0.2 log units, -1.95
- C96U C114U A147C — lower, -4.07
- A97U A119G U130C — higher, 0.572
- U130C A138G — lower, -3.28
- A98G C118A C129A — lower, -2.75
- C96U A115U G124C U151C — lower, ≤ -4.2
- A107G G117U — lower, -4.04
- A107U G133C — lower, -3.72
- C96A U104G — higher, -0.932
- C96U G140C — lower, -3.73
- C96U G140U — lower, -3.33
- C96A C103A U135A U145A — within 0.2 log units, -1.96
- A97G G112A A121C G141U — lower, ≤ -4.2
- A98U A115C G143A — lower, -3.88
- G117C A137G — higher, -0.587
- G126A G140U — lower, -3.43
- A107G U144G — lower, -3.59
- A98G C99G A122U — higher, -1.25
- C105U A113U — higher, -1.37
- G94C G140A — lower, -3.95
- G128U G141A — lower, -3.74
- G94C C132U — higher, -1.26
- A97U U102C A138C — lower, ≤ -4.2
- U102G U144C — lower, -3.06
- A115G A122U G124C — within 0.2 log units, -1.96
- C95U C116G A138G — lower, -3.58
- U101A C131U — higher, 0.454
- G117A G141C — lower, -3.29
- A110G U144G — lower, -3.13
- C99G C108U — lower, -4.14
- A115U G141U — higher, -1.29
- C118A U139G — higher, -0.933
- C95U C131A C132U — lower, -3.79
- U127G — lower, -3.06
- U127A — lower, -2.94
- U127C — higher, -1.3
- A106C A115U A120C G136C — lower, -3.11
- A106C A107G — lower, -4.18
- G126A A150C — lower, -4.16
- C116U C118G — higher, 0.0696
- C105G C132A — lower, -3.96
- C96A C118A — higher, -0.912
- C96G G124A — higher, -0.441
- A106C G141U — higher, 0.961
- A121U U135A — higher, -0.658
- C96U A110G — lower, -3.55
- A119G A120U — higher, 0.0433
- G94C C96U — higher, -1.08
- C96U C125A U144G — higher, -0.161
- C99G — higher, -0.744
- C99A — higher, -0.806
- C99U — higher, -0.26
- A98U U146G A150U — higher, -0.247
- A107G C125A — lower, -3.63
- U109A — higher, -1.11
- U109G — higher, -0.578
- U109C — lower, -2.81
- C96G U111C — lower, -3.62
- C96A A122U — higher, -0.0649
- C99U G140U — lower, -3.37
- C99U G140C — lower, -3.43
- C129A G133C — lower, -3.55
- C96U U146G — higher, -1.29
- C96U G128U A147C — lower, -3.7
- C125G U145G — lower, -2.69
- C99G A119C — higher, -0.2
- G94C C103U — higher, -0.0253
- C95U G100U U148G — lower, ≤ -4.2
- C114U A142G — lower, -2.95
- U101C U102G A106G — within 0.2 log units, -1.84
- C116A A142G — higher, 0.244
- C118U U145G — higher, -1.09
- C116A U139A U148A — lower, -4.12
- G128U U139A A142G — lower, -4.07
- C96U A119C — higher, -1.05
- C131U U146C G152C — higher, -1.2
- A97U G124U C149G — lower, -3.65
- C108U G117U A120G — lower, -3.18
- C96A A113U U144A — lower, -2.58
- G94U G143A — within 0.2 log units, -1.67
- A115G G140U — lower, -3.41
- C118G A122G — higher, -0.988
- A106G C118A — higher, -0.47
- G94U G141U — higher, -0.082
- U109C G117A U146A — lower, -3.86
- G100A U146C — lower, -4.17
- C96U G136U — lower, -2.74
- C96U G136A — higher, 0.246
- C95U C99G G117A A120C A122G — within 0.2 log units, -1.97
- A113U U134C — lower, -2.77
- A113U U127C — lower, -2.98
- G124U G141U — higher, 0.513
- A119U U148A — lower, -3.01
- C99A A150G — lower, -3.11
- C96G A107C C108A A120U G136U — lower, -3.81
- C99G G152A — lower, -2.39
- C96U U134C — higher, -0.883
- A115U U134G — lower, -3.31
- C125G G126A — lower, -3.42
- A120U U148G — lower, -3.59
- U102G U111G — lower, ≤ -4.2
- G94C C99U — higher, -0.0105
- C96U G128A U130G — lower, ≤ -4.2
- G100U C125G — lower, -4.05
- A97U C118G A121G — higher, -1.56
- G133A A142G — lower, ≤ -4.2
- C125U U145A — higher, -1.23
- C95U A122C U130G U139A — lower, -4.01
- C96U G100C — lower, -3.97
- C95A C96G U144C — lower, -2.34
- A110U A142U A150U — lower, ≤ -4.2
- C103A A106G — higher, -0.927
- U102A C114A — lower, -4
- G94U A142G — lower, -3.45
- C96A U127C — within 0.2 log units, -1.71
- A115G C129G — lower, -3.64
- G126A U148C — lower, -2.93
- C103U U134G G141C — lower, -4.14
- C132G G141C — lower, -3.73
- C96U C125G — higher, -0.976
- A113C C118A C125U — lower, ≤ -4.2
- C103A G141U — lower, -3.08
- C95A U144G — higher, 0.303
- A121G U148A — lower, -3.78
- A97U U144A — higher, -1.56
- A98U — higher, -0.453
- A98G — higher, -0.208
- U109A U135C — lower, -3.36
- C99G C132U — within 0.2 log units, -1.96
- C132A G143U — lower, ≤ -4.2
- A120G U134G U148G — lower, -3.72
- C96A U102A G143C — lower, -4.16
- G94A U102G G133A — lower, ≤ -4.2
- A122U — higher, -0.218
- A122G — higher, -0.303
- A122C — higher, -0.398
- C96U A115G U148A — lower, -3.95
- C103G U145C — within 0.2 log units, -1.74
- C96A A120G — higher, 0.0421
- U102G G141U — within 0.2 log units, -1.98
- U104G C118G — within 0.2 log units, -1.89
- C96U C105G U144A — within 0.2 log units, -1.81
- C96U C114U — lower, -2.66
- A97U C123U — higher, 0.268
- C96G A120C U146C — higher, -0.778
- G100C A137G G141C U148A — lower, ≤ -4.2
- A119G G143A — higher, 1.13
- A110G G117A U144A — lower, -4.15
- C105U C116U G133U A142C C149U — lower, -4.08
- C118U G124U A142C — within 0.2 log units, -1.96
- C95U C96U — higher, -1.18
- C95U C96G — higher, -0.577
- A106G G141U — higher, 2.01
- C125G U134A G140A — lower, ≤ -4.2
- C116G A122G — higher, -0.408
- C108G U144C — lower, -4.13
- A106C U134C — higher, 0.274
- A120U — higher, -0.233
- A120G — higher, 0.00404
- A120C — higher, -0.331
- C96U U127C — higher, -1.34
- A113C U135A G136A — lower, -4.05
- U101C A106G — higher, 0.00894
- C116U A142C — higher, -1.1
- G133U G141C — lower, -3.81
- U101G G126U — higher, 0.138
